# From US20210317176A1 (Amgen, published 2021)
# Tests used:
# beta-klotho [1] = assay: cell-based or functional assay
# beta-klotho [2] = assay: cell-based or functional assay; remark: listed apart in the source
Binder,"Efficacy (ELK-luciferase assay, relative to wild-type FGF21) (beta-klotho [1]) [%]",EC50 (ELK-luciferase assay) (beta-klotho [2]) [pM]
FGF21 truncation mutant 1-165 (ligand) HPIPDSSPLLQFGGQVRQRYLYTDDAQQTEAHLEIREDGTVGGAADQSPESLLQLKALKPGVIQILGVKTSRFLCQRPDGALYGSLHFDPEACSFRELLLEDGYNVYQSEAHGLPLHLPGNKSPHRDPAPRGPARFLPLPGLPPAPPEPPGILAPQPPDVGSSDP,~10,
human FGF21 (wild-type mature FGF21 polypeptide) (ligand) HPIPDSSPLLQFGGQVRQRYLYTDDAQQTEAHLEIREDGTVGGAADQSPESLLQLKALKPGVIQILGVKTSRFLCQRPDGALYGSLHFDPEACSFRELLLEDGYNVYQSEAHGLPLHLPGNKSPHRDPAPRGPARFLPLPGLPPAPPEPPGILAPQPPDVGSSDPLSMVGPSQGRSPSYAS,,400
FGF21 truncation mutant 1-166 (ligand) HPIPDSSPLLQFGGQVRQRYLYTDDAQQTEAHLEIREDGTVGGAADQSPESLLQLKALKPGVIQILGVKTSRFLCQRPDGALYGSLHFDPEACSFRELLLEDGYNVYQSEAHGLPLHLPGNKSPHRDPAPRGPARFLPLPGLPPAPPEPPGILAPQPPDVGSSDPL,~20,
FGF21 truncation mutant 1-171 (ligand) HPIPDSSPLLQFGGQVRQRYLYTDDAQQTEAHLEIREDGTVGGAADQSPESLLQLKALKPGVIQILGVKTSRFLCQRPDGALYGSLHFDPEACSFRELLLEDGYNVYQSEAHGLPLHLPGNKSPHRDPAPRGPARFLPLPGLPPAPPEPPGILAPQPPDVGSSDPLSMVGP,113,
FGF21 truncation mutant 1-173 (ligand) HPIPDSSPLLQFGGQVRQRYLYTDDAQQTEAHLEIREDGTVGGAADQSPESLLQLKALKPGVIQILGVKTSRFLCQRPDGALYGSLHFDPEACSFRELLLEDGYNVYQSEAHGLPLHLPGNKSPHRDPAPRGPARFLPLPGLPPAPPEPPGILAPQPPDVGSSDPLSMVGPSQ,96.1,
FGF21 truncation mutant 1-169 (ligand) HPIPDSSPLLQFGGQVRQRYLYTDDAQQTEAHLEIREDGTVGGAADQSPESLLQLKALKPGVIQILGVKTSRFLCQRPDGALYGSLHFDPEACSFRELLLEDGYNVYQSEAHGLPLHLPGNKSPHRDPAPRGPARFLPLPGLPPAPPEPPGILAPQPPDVGSSDPLSMV,84.9,
FGF21 truncation mutant 4-181 (ligand) PDSSPLLQFGGQVRQRYLYTDDAQQTEAHLEIREDGTVGGAADQSPESLLQLKALKPGVIQILGVKTSRFLCQRPDGALYGSLHFDPEACSFRELLLEDGYNVYQSEAHGLPLHLPGNKSPHRDPAPRGPARFLPLPGLPPAPPEPPGILAPQPPDVGSSDPLSMVGPSQGRSPSYAS,117,
FGF21 truncation mutant 1-172 (ligand) HPIPDSSPLLQFGGQVRQRYLYTDDAQQTEAHLEIREDGTVGGAADQSPESLLQLKALKPGVIQILGVKTSRFLCQRPDGALYGSLHFDPEACSFRELLLEDGYNVYQSEAHGLPLHLPGNKSPHRDPAPRGPARFLPLPGLPPAPPEPPGILAPQPPDVGSSDPLSMVGPS,97.5,
FGF21 truncation mutant 9-181 (ligand) LLQFGGQVRQRYLYTDDAQQTEAHLEIREDGTVGGAADQSPESLLQLKALKPGVIQILGVKTSRFLCQRPDGALYGSLHFDPEACSFRELLLEDGYNVYQSEAHGLPLHLPGNKSPHRDPAPRGPARFLPLPGLPPAPPEPPGILAPQPPDVGSSDPLSMVGPSQGRSPSYAS,12.5,
FGF21 truncation mutant 1-176 (ligand) HPIPDSSPLLQFGGQVRQRYLYTDDAQQTEAHLEIREDGTVGGAADQSPESLLQLKALKPGVIQILGVKTSRFLCQRPDGALYGSLHFDPEACSFRELLLEDGYNVYQSEAHGLPLHLPGNKSPHRDPAPRGPARFLPLPGLPPAPPEPPGILAPQPPDVGSSDPLSMVGPSQGRS,105,
FGF21 truncation mutant 2-181 (ligand) PIPDSSPLLQFGGQVRQRYLYTDDAQQTEAHLEIREDGTVGGAADQSPESLLQLKALKPGVIQILGVKTSRFLCQRPDGALYGSLHFDPEACSFRELLLEDGYNVYQSEAHGLPLHLPGNKSPHRDPAPRGPARFLPLPGLPPAPPEPPGILAPQPPDVGSSDPLSMVGPSQGRSPSYAS,112,
FGF21 truncation mutant 1-180 (ligand) HPIPDSSPLLQFGGQVRQRYLYTDDAQQTEAHLEIREDGTVGGAADQSPESLLQLKALKPGVIQILGVKTSRFLCQRPDGALYGSLHFDPEACSFRELLLEDGYNVYQSEAHGLPLHLPGNKSPHRDPAPRGPARFLPLPGLPPAPPEPPGILAPQPPDVGSSDPLSMVGPSQGRSPSYA,93.2,
FGF21 truncation mutant 1-167 (ligand) HPIPDSSPLLQFGGQVRQRYLYTDDAQQTEAHLEIREDGTVGGAADQSPESLLQLKALKPGVIQILGVKTSRFLCQRPDGALYGSLHFDPEACSFRELLLEDGYNVYQSEAHGLPLHLPGNKSPHRDPAPRGPARFLPLPGLPPAPPEPPGILAPQPPDVGSSDPLS,~20,
FGF21 truncation mutant 3-181 (ligand) IPDSSPLLQFGGQVRQRYLYTDDAQQTEAHLEIREDGTVGGAADQSPESLLQLKALKPGVIQILGVKTSRFLCQRPDGALYGSLHFDPEACSFRELLLEDGYNVYQSEAHGLPLHLPGNKSPHRDPAPRGPARFLPLPGLPPAPPEPPGILAPQPPDVGSSDPLSMVGPSQGRSPSYAS,130,
FGF21 truncation mutant 8-181 (ligand) PLLQFGGQVRQRYLYTDDAQQTEAHLEIREDGTVGGAADQSPESLLQLKALKPGVIQILGVKTSRFLCQRPDGALYGSLHFDPEACSFRELLLEDGYNVYQSEAHGLPLHLPGNKSPHRDPAPRGPARFLPLPGLPPAPPEPPGILAPQPPDVGSSDPLSMVGPSQGRSPSYAS,24.9,
FGF21 truncation mutant 1-177 (ligand) HPIPDSSPLLQFGGQVRQRYLYTDDAQQTEAHLEIREDGTVGGAADQSPESLLQLKALKPGVIQILGVKTSRFLCQRPDGALYGSLHFDPEACSFRELLLEDGYNVYQSEAHGLPLHLPGNKSPHRDPAPRGPARFLPLPGLPPAPPEPPGILAPQPPDVGSSDPLSMVGPSQGRSP,112,
FGF21 truncation mutant 5-181 (ligand) DSSPLLQFGGQVRQRYLYTDDAQQTEAHLEIREDGTVGGAADQSPESLLQLKALKPGVIQILGVKTSRFLCQRPDGALYGSLHFDPEACSFRELLLEDGYNVYQSEAHGLPLHLPGNKSPHRDPAPRGPARFLPLPGLPPAPPEPPGILAPQPPDVGSSDPLSMVGPSQGRSPSYAS,120,
FGF21 truncation mutant 7-181 (ligand) SPLLQFGGQVRQRYLYTDDAQQTEAHLEIREDGTVGGAADQSPESLLQLKALKPGVIQILGVKTSRFLCQRPDGALYGSLHFDPEACSFRELLLEDGYNVYQSEAHGLPLHLPGNKSPHRDPAPRGPARFLPLPGLPPAPPEPPGILAPQPPDVGSSDPLSMVGPSQGRSPSYAS,74.2,
FGF21 truncation mutant 1-178 (ligand) HPIPDSSPLLQFGGQVRQRYLYTDDAQQTEAHLEIREDGTVGGAADQSPESLLQLKALKPGVIQILGVKTSRFLCQRPDGALYGSLHFDPEACSFRELLLEDGYNVYQSEAHGLPLHLPGNKSPHRDPAPRGPARFLPLPGLPPAPPEPPGILAPQPPDVGSSDPLSMVGPSQGRSPS,95,
FGF21 truncation mutant 1-174 (ligand) HPIPDSSPLLQFGGQVRQRYLYTDDAQQTEAHLEIREDGTVGGAADQSPESLLQLKALKPGVIQILGVKTSRFLCQRPDGALYGSLHFDPEACSFRELLLEDGYNVYQSEAHGLPLHLPGNKSPHRDPAPRGPARFLPLPGLPPAPPEPPGILAPQPPDVGSSDPLSMVGPSQG,105,
